Data on 3 molecules can be found in article PMC4600334, “Myostatin blockade with a fully human monoclonal antibody induces muscle hypertrophy and reverses muscle atrophy in young and aged mice” (Skeletal Muscle, 2015).

The chains are these.
B1: Human growth and differentiation factor 11 (ligand, UniProt O95390 299-407, looked up)
chain: NLGLDCDEHSSESRCCRYPLTVDFEAFGWDWIIAPKRYKANYCSGQCEYMFMQKYPHTHLVQQANPRGSAGPCCTPTKMSPINMLYFNDKQQIIYGKIPGMVVDRCGCS
notes: human growth and differentiation factor 11 (GDF11), purchased from R&D Systems; also called GDF11; GDF-11; source: bought: R&D Systems
B2: Soluble human ActRIIB-hFc (Fc fusion, UniProt Q13705 19-133, looked up)
chain: SGRGEAETRECIYYNANWELERTNQSGLERCEGEQDKRLHCYASWRNSSGTIELVKKGCWLDDFNCYDRQECVATEENPQVYFCCCEGNFCNERFTHLPEAGGPEVTYEPPPTAP
notes: signal peptide in the construct; extracellular domain (1-133) of the human ActRIIB receptor (ACVR2B), in-frame fusion with human IgG1 Fc-domain; also called ActR2B-hFc; source: produced in Chinese hamster ovary (CHO) cells
B3: Human activin A (ligand, UniProt P08476 311-426, looked up)
chain: GLECDGKVNICCKKQFFVSFKDIGWNDWIIAPSGYHANYCEGECPSHIAGTSGSSLSFHSTVINHYRMRGHSPFANLKSCCVPTKLRPMSMLYYDDGQNIIKKDIQNMIVEECGCS
notes: human activin A (inhibin beta A chain), purchased from R&D Systems; source: bought: R&D Systems

Assay [1] addresses B2. The experiment in a line: SPR; Biacore T200, CM5 chip, 25 °C; ActRIIB-hFc captured through its Fc (32-39 RU) by immobilised goat anti-human Fcγ antibody; ligands injected at 40 to 0.78 nM; HBS-T (10 mM HEPES, 150 mM NaCl, 3 mM EDTA, 0.05 % P20, 10 mg/ml carboxymethyldextran, 0.5 mg/ml BSA, pH 7.4); global fit to a 1:1 model. To be noted: both partners purified.
The target of assay [2] is T1, Human myostatin (human, UniProt O14793 267-375).
T1 sequence (looked up): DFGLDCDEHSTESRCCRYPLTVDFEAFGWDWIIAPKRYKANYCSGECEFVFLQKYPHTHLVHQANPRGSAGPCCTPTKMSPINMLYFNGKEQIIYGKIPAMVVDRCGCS
In words: cell-based or functional assay.

The target in assay [3] is B1. In words: cell-based or functional assay.
Assay [4] deals with B3. The experiment in a line: cell-based or functional assay.
The target in assay [5] is B3. In words: SPR; Biacore T200, CM5 chip, 25 °C; ActRIIB-hFc captured through its Fc (32-39 RU) by immobilised goat anti-human Fcγ antibody; ligands injected at 40 to 0.78 nM; HBS-T (10 mM HEPES, 150 mM NaCl, 3 mM EDTA, 0.05 % P20, 10 mg/ml carboxymethyldextran, 0.5 mg/ml BSA, pH 7.4); global fit to a 1:1 model. The settings on record: both partners purified. On the technique in general: In SPR one partner is held on a chip, and binding of the other changes the refractive index at the surface.

Broadly, the Kd is the constant that tells how readily two partners part at equilibrium. Low values mean higher affinity, high ones lower affinity. As usually defined, the koff is the rate constant with which the complex falls apart. Low values mean slow dissociation, high ones fast dissociation. For orientation: kon means the second-order rate constant of association. Turning to B1, in assay [1], the Kd was determined as 0.014 nM, the T1/2 was found to be 1.87 h, the koff worked out at 0.000103 s⁻¹ and the kon turned out to be 7.38e+06 M⁻¹ s⁻¹.

With B2, the “IC50 of inhibition of Smad2/3 luciferase activity in A204/Smad2/3/Luc cells stimulated with a constant 1 nM myostatin” value in assay [2] came out at 0.57 nM. Also, in assay [3], the “IC50 of inhibition of Smad2/3 luciferase activity in A204/Smad2/3/Luc cells stimulated with a constant 0.4 nM GDF11” value stood at 0.46 nM. Besides, in assay [4], the “IC50 of inhibition of Smad2/3 luciferase activity in A204/Smad2/3/Luc cells stimulated with a constant 0.4 nM activin A” value came out at 1.2 nM. In assay [5], this molecule yielded a dissociation constant Kd of 0.0866 nM, a koff of 7.94e-05 s⁻¹ and a kon of 917000 M⁻¹ s⁻¹.

The molecule B3 had a T1/2 in assay [1] of 2.43 h.
